# Assay: yeast display, Sf9 membrane polyspecificity reagent, FACS + sequencing; frameworks hold sequencing errors
# Method in brief: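 Polyreactivity labels are assigned by the sorting gate from which each nanobody was recovered. The gates were low and high (top ~1%), set on anti-HA fluorescence for expression and streptavidin fluorescence for reagent binding. Before sorting, galactose-induced (36–48 hours) yeast display cells were stained for 1 hour at 4 °C with 10% biotinylated, detergent-solubilized Sf9 membrane reagent.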
row,Sequence,polyreactivity (PSR sort gate)
1,QVQLVESGGGLVQAGGSLRLSCAASGFTFSRYAMVWYRKAPGKDRELVAVISSSGSRTYYADSVKGRFSISRHNAKNTVHLQMNSLQPEDTAVYYGAAKSYTVTAYEYWGQGTQVTVSS,high polyreactivity
2,QVQLVESGGGLVQAGGSLRLSCAASGFTFSSDAMGWYRQAPGKERELVAAITWRGGTTYYADSVKGRFTISRDNAKNTVYLQMNSLKPEDTAVYYCAVDFKRVIRGSRWGDYWGQGTQVTVSS,high polyreactivity
3,QVQLVESGGGLVQAGGSLRLSCAASGFTFSSNAMGWYRQAPGKERELVAAISFNSTSTYYADSVKGRFTISRDNAKNTVYIQMNSLKPEDTAVYYCAKESPPAEGDSGYDYWGQGTQVTVSS,low polyreactivity
4,QVQLVESGGGLVQAGGSLRLSCAASGFTFSSYALGWSRQAPGKERELVAAISTRGGSTYYADSVKGRFTISRDNAKNTVYLQRNSLKPEDTADYYCATGGRGGRRYEYWGQGTQVTVSS,low polyreactivity
5,QVQLVESGGGLVQAGGSLRLSCAASGFTFSSYAMGWYRQAPGKERELVAAINWSGGSTYYADSVKGRFTISRDNAKNTVYLQMNSLKPEDTAVYYCATSVKDRYWVDYWGQGTQVTVSS,high polyreactivity
6,QVQLVESGGGLVQAGGSLRLSCAASGFTFSSYAMGWYRQAPGKERELVAAITQSGGRTYYADSVKGRFTISRDNAKNTVYLQMNSLKPEDTAVYSCAADVTLWYDYWGQGTQVTVSS,low polyreactivity
7,QVQLVESGGGLVQAGGSLRLSCAASGFTFSSYARGWYRQAPGKEREFVAAIRFSGGSTYYADSVKGRFTISRDNAMNTVYLQMNSLKPVDTAVYYCAKRWGIWPRGYYWGQGTQVSVSS,low polyreactivity
8,QVQLVESGGGLVQAGGSLRLSCAASGFTFSSYTMGWYRQAPGKEREFVAAISRRTGRTYYADSVKGRFTISRDYAKNTVYLQMNSLKPEDTAVFYCAADLYYYGFFWDFGDGFDYWGQGTQVTVSS,high polyreactivity
9,QVQLVESGGGLVQAGGSLRLSCAASGFTFSSYTMGWYRQAPGKERELVAAISRRTGRTYYADSVKGRFTISRDNAKNTVYLQMNSLKPEDTEVYYCAARPYWSYRRYDYWGQGTQVTVSS,high polyreactivity
10,QVQLVESGGGLVQAGGSLRLSCAASGFTFSTNAMGWYRPAPGKERELVAAISPDGGTYYADSVKGRFTISRDNAKNTVYLQMNSLIPEDTAVYYCAAVWGRGVWDLYDYWGQGTQVTVSS,low polyreactivity
11,QVQLVESGGGLVQAGGSLRLSCAASGFTFSTYAMGWYRQEPGKEREFVATISWRGTNTYYADSVKGRFTISRDNAKNTVYLQMNSLKPEDTAVYDCAARRRSGYGANDYWGQGTQVTVSS,high polyreactivity
12,QVQLVESGGGLVQAGGSLRLSCAASGFTFSVYAMGWSRQAPGKERELVAAITSDGITNYADSVKGRFTISRDNAKNTVYLQMNSLKPEDTAVYYCNADPGYVRGYDYWGQGTQVTVSS,low polyreactivity
13,QVQLVESGGGLVQAGGSLRLSCAASGFTFSVYAMGWYRQAPGKERELVADIDWSGGSTYYADSVKGRFTISRDNAKNTVYLQMNSLKPEDTAVYYCAADYYYPDSYVQGTSGEYWGQGTQVTVSS,low polyreactivity
14,QVQLVESGGGLVQAGGSLRLSCAASGFTFSVYAMGWYRQAPGKERELVASITNGGTTYYADSVKGRFTISRDNAKNTVYLQMNSLKPEDTAVYYCAAKLYSWYHKFVNPTYGYWGQGTQVTVSS,high polyreactivity
15,QVQLVESGGGLVQAGGSLRLSCAASGFTFSWNAMGWYRQAPGKEREFVAAITSSGGSTYADSVKGRFTISRDNAKNTVYLQMNSLKPEDTAVYYCAAGGFSQHGHGYWGQGTQVTVSS,high polyreactivity
16,QVQLVESGGGLVQAGGSLRLSCAASGFTFSYSAMGGYSQAPGKERELVAAISRSGSGTSYADSVKGRFTISRDNAKNTVYLQMTSLKPEDTAVYYCAARGGTTRYGNDYWGQGTQVTVSS,high polyreactivity
17,QVQLVESGGGLVQAGGSLRLSCAASGFTFSYYAMGWYREAPGKERELVAAISQSGGSKYYADSVKGRFIISRDNAKNTVYLQMNSLKPEDTAVYYCNRGLRSHQSDDYWGLGTQVTVSS,high polyreactivity
18,QVQLVESGGGLVQAGGSLRLSCAASGFTFSYYAMGWYRKAPGKEMELVAAINWNGGSTYYADSVKGRFTISRDNAKNTVYLQMNSLKPEDTAVYYCNARQSYRYTQHGYWGQGTQVTVSS,high polyreactivity
19,QVQLVESGGGLVQAGGSLRLSCAASGFTFSYYAMGWYRQAPAKEREVVAAISRSGGSTYYADSVKGRFTISRDNAKNTVYFQMNSLIPEDTAVYYCATDLYYRHGYCGQGTQVTVSS,high polyreactivity
20,QVQLVESGGGLVQAGGSLRLSCAASGFTFSYYAMGWYRQAPGKERELVAAISWSGGRTYYADSVKGRFTISRDNAKNTVYLQMNSLKPEDTAVYYCAVVYYGSIFVLEYDYWGQGTQVTVSS,high polyreactivity
21,QVQLVESGGGLVQAGGSLRLSCAASGFTFSYYAMGWYRQAPGKERELVAAITSTGGSTYYADSVKGRFTISRDNAKNTVYLQMNSLKPEDTAVYYCATRGANRTGYKDDYWGQGTQVTVSS,high polyreactivity

row,Sequence,polyreactivity (PSR sort gate)
1,QVQLVESGGGLVQAGGSLRLSCAASGFTFSYYAMGWYRQATGKETELVAGIDYSGGSTYYADSVKGRFTISRDNAKNTVYLQMNCLKPEDTAVYYCNAVYARIYYYSHGYDYWGQGTQVTVSS,high polyreactivity
2,QVQLVESGGGLVQAGGSLRLSCAASGFTFSYYGMVWYRQAPWKERELVAGISRGGSTYYADSVKGRFTISRDNAKNTVYLQMNSLKPEDTAVYYCAAAERLRHGLKFDYWGQGTQVTVSS,high polyreactivity
3,QVQLVESGGGLVQAGGSLRLSCAASGFTFSYYPMGWYRLAPGKERELVAAITSGGSTYYADSVKGRFTISRDNAKNTVYLQMNSLKPEDTAVYYCNARGYGTLNVRRERMDYWGQGTQVTVSS,high polyreactivity
4,QVQLVESGGGLVQAGGSLRLSCAASGFTFTAYAMGLYRQAPGKERQLVAAINWSGSRTYYADSVKGRFTISRDNAKNTVYLQMNSLKPEDSAVYYCNTPTSKSSYRHYDYWGQGTQVTVSS,high polyreactivity
5,QVQLVESGGGLVQAGGSLRLSCAASGFTFTAYAMGWYRQAPGKERELVAAISSGGSTYYADSVKGRFTISRDNAKNTVYLQMNSLKPEDTAVYYCAAVGVYTVKREYWGQGTQLTVSS,low polyreactivity
6,QVQLVESGGGLVQAGGSLRLSCAASGFTFTAYAMGWYRQAPGKERELVAAISSGGSTYYADSVKGRFTISRDNAKNTVYLQMNSLKPEDTAVYYCSAVGVYTVKRDYWGQGTQVTVSS,low polyreactivity
7,QVQLVESGGGLVQAGGSLRLSCAASGFTFTDNAMGWSRQAPGKERELVAAISRGVGTNYADSVKGRFTISRDNAKNTVYLQMNSLKPEDTAVYYCAAGGRSVRYNYWGQGTQVTVSS,high polyreactivity
8,QVQLVESGGGLVQAGGSLRLSCAASGFTFTEYTMGRYRQAPGKERELVATISWSGGSTYYADSVKGRFTISRDNAKNTVYLQMNSLKPEDTAVYYCAKDQWPWVRDSLYTLRYDYWGQGTQVTVSS,low polyreactivity
9,QVQLVESGGGLVQAGGSLRLSCAASGFTFTGNVMGWYRQAPGKERELVAAISSRGVSTYYADSVKGRFTISRDNAKNTVYLQMNSLKPEDTAVYYCAVSRIVDFGQKMYYWGQGTQVTVSS,high polyreactivity
10,QVQLVESGGGLVQAGGSLRLSCAASGFTFTGYAIGWYRQAPGKERELVAAITSNTGGTYYADSVKGRFTISRDNAKNTVYLEMNSLKAEDTAVYYCAAGHSGGQVDTIFQGMDYWGQGTQVTVSS,low polyreactivity
11,QVQLVESGGGLVQAGGSLRLSCAASGFTFTKYAMGWYRQAPGKERELVAAISGRGGSTYYADSVKGRFTISRDNAKNTVYLQMNRLKPEDTAVYYCAKYLYTVAGYNYWGQGTQVTVSS,high polyreactivity
12,QVQLVESGGGLVQAGGSLRLSCAASGFTFTPYGMGWYRQAPGKERALVAAITWNGGRTYYADSVKGRFTISRDNAKNTVYLQMNSLKPEDTAVDYCAAVAWSWQKRGYWGQGTQVTVSS,high polyreactivity
13,QVQLVESGGGLVQAGGSLRLSCAASGFTFTRNAMGLYRQAPGKERELFAAISKRGGTTYYADSVKGRFSISRDYAKNTVYLQMNSLKPEDTAVYYCAKDGGITGGYWGQGSQVTVSS,high polyreactivity
14,QVQLVESGGGLVQAGGSLRLSCAASGFTFTRNAMGWYRQAPGKERELVAAISSSGTSTYYADSVKGRFTISRDNAKNTVYLQMNSLKPEDTAVYYCAKDFYRRYYSWGLGTQVTVSS,high polyreactivity
15,QVQLVESGGGLVQAGGSLRLSCAASGFTFTRNVMGWYRQAPGKERELVAAINASGGRTYYADSVKGRFTISRDNAKNTVYLQMNSLKPEDTAVYYCAARDTQLGGSRGGSWGQGTQVTVSS,high polyreactivity
16,QVQLVESGGGLVQAGGSLRLSCAASGFTFTRYAKGWYRQAPGKERELVAAISQNGGSTYYADSVKGRFTISRDNAKNTVYLQMNSLKPEDTAVYYCYAGVRRTIAFDYWGQGTQVTVSS,high polyreactivity
17,QVQLVESGGGLVQAGGSLRLSCAASGFTFTRYGMGWYRQAPGKERELVAGISSGGSTNYADSVKGRFTISRDNAKNTVYLQRNSLKPEDTAVYYCAARAKRYNVRFDYWGQGTQVTVSS,high polyreactivity
18,QVQLVESGGGLVQAGGSLRLSCAASGFTFTRYTMGWYRQAPGKERELVAHITSGDSTNYADSVKGRFTISRDNAKNTVYLQMNSLKPEDTAVYYCNAEVKGFFYDYDYWGQGTQVTVSS,low polyreactivity
19,QVQLVESGGGLVQAGGSLRLSCAASGFTFTSNAMGWYRQAPGKEREFVADISNIGGDTTYADSVKGRFTISRDNAKNTVYLQMNSLKPEDTAVYYCKADFAFIENDYWGQGTQVTVSS,low polyreactivity
20,QVQLVESGGGLVQAGGSLRLSCAASGFTFTSNAMGWYRQAPGKEREFVADISNIGGDTTYADSVKGRFTISRDNAKNTVYLQMNSLKPEDTAVYYCNADFAFIENDYWGQGTQVTVSS,low polyreactivity
